In US20110135636A1 (SYMPHOGEN A S, published 2011):
Numbering of substitutions follows the chain as printed.

B1: antibody 1261 (antibody, human IgG1, kappa, V domains shown)
VH: EVQLVESGGGLVKPGGSLKLSCAVSGFTFSSYVMSWVRQTPEKRLEWVATITSGGRNIYYLDSVKGRFTISRDNAKNTLYLQMSSLRSEDTAMYYCARHEDYRYDGYYAMDYWGQGTSVTVSS
VL: QIVLTQSPAIMSASPGEKVTITCSASSSVSYMHWFQQKPGTSPKLWIYSTSNLASGVPARFSGSGSGTSYSLTISRMEAEDAATYYCQQRSSYPYTFGGGTKLELKR
notes: Chimeric IgG1 kappa
B2: antibody 1284 (antibody, human IgG1, kappa, V domains shown)
VH: QVQLQQPGAELVKPGASVKLSCKASGYTFTSDWMHWMKQRPGQGLEWIGEINPSNGRSSYNEKFKSKATLTVDKSSSTAYMQLSSLTSEDSAVYYCARIGGIYVETYWGQGTLVTVSS
VL: DIVLTQSPASLAVSLGQRATISCRASQSVSTSTYSYMHWYQQKSGQPPKLLIKYASNLESGVPARFSGSGSGTDFTLNIHPVEEEDTATYYCQHSWEIPWTFGGGTKLEIKR
notes: Chimeric IgG1 kappa
B3: antibody 1344 (antibody, human IgG1, kappa, V domains shown)
VH: QVQLKESGPGLVAPSQSLSITCTVSGFSLTIYGVHWVRQPPGKGLEWLGVIWAGGNTNYNSALMSRLSISKDNSKSQVFLKMNSLQTDDTAMYFCARGYGYNLDYWGQGTTLTVSS
VL: DIQMTQTTSSLSASLGDRVTISCSASQGISNYLNWYQQKPDGTVKLLIYYTSSLHSGVPSRFSGSGSGTDYSLTISNLEPEDIATYYCQQYSKLPYTFGGGTKLEIKR
notes: Chimeric IgG1 kappa
B4: antibody 1308 (antibody, human IgG1, kappa, V domains shown)
VH: EVQLQQSGAELVRPGSSVKISCKASGYAFSSYWMNWVRQRPGQGLEWIGQIYPGDGDTNYNGKFKGRATLTANKSSSTAYMQLSSLTSEDSAVYFCARRASSLYDVYPYYFDYWGQGTTLTVSS
VL: B3 VL with S24R, G28D, L46V, S53R, P80Q, Y87F, Y91G, S92N, K93T
notes: Chimeric IgG1 kappa
B5: antibody 1320 (antibody, human IgG1, kappa, V domains shown)
VH: QVQLQQPGAELVKPGASMKLSCKASGYTFTNYWMHWVKQRPGQGLEWIGEINPSNGRTNYNEKFKSKATLTVDKSSSTAYMQLSSLTSEDSGVYYCAKGGNYYDYDWDYWGQGTTLTVSS
VL: B3 VL with G28D, Y50H, S53T, Y96W
notes: Chimeric IgG1 kappa
B6: antibody 1260 (antibody, human IgG1, kappa, V domains shown)
VH: B3 VH with I31T, N56S, S70K, F94Y, G98A, L103F
VL: B3 VL with S30T, T51S, K93E, L94I, I106L
notes: Chimeric IgG1 kappa

How the values were obtained:
[1] = target: T1, recombinant human EGFR extracellular domain with 6xHis (human, UniProt P00533 25-645); test: SPR competition, competitor Ab-3
T1 construct: In-house produced; also called 6xHis EGFR ECD; soluble human EGFR ECD; not shown: 6xHis tag
Procedure: (§1) SPR analysis was performed on a Biacore 3000 machine containing four flow cells. A CM5 Biacore chip was conjugated with 10,000 Resonance units (Ru) polyclonal anti-His antibody to flow cells 1-4 according to the manufacturer's instructions. […] Immediately after antigen injection the maximal binding of the Anti-EGFR mAb without competition was established in each flow cell during a reference run. Briefly 5 μl antibody at a concentration of 40 μg/ml was injected over all flow cells with captured EGFR followed by stripping of the antibody/antigen complex with a low pH acid wash (10 sec. contact time with 10 mM Glycine-HCl, pH2). After the determination of Anti-EGFR antibody maximal binding to each flow cell, a competition run was performed during the same Biacore cycle. Flow cells were first saturated with EGFR ECD antigen followed by injection of different reference antibodies or Anti-EGFR antibodies into separate flow cells using the same antigen saturating conditions as outlined above. This step was immediately followed by a second injection of Anti-EGFR antibody over the flow cell saturated with EGFR antigen and competition antibody to minimize the dissociation of either antigen or blocking antibody. Then the antibody/antigen complexes were stripped off with a low pH acid wash (10 sec. contact time with 10 mM Glycine-HCl, pH 2) and the whole cycle beginning with the reference run was repeated with a new Anti-EGFR antibody. The degree of inhibition of tested Anti-EGFR antibodies were determined by comparing the Ru max value of the individual Anti-EGFR antibody before and after competition by introduction of report points recorded two seconds before and after injection of each sample.

[2] = target: T1, recombinant human EGFR extracellular …; test: SPR competition, competitor Vectibix
Procedure: as §1

[3] = target: T1, recombinant human EGFR extracellular …; test: SPR competition, competitor 1024
Procedure: as §1

[4] = target: T1, recombinant human EGFR extracellular …; test: SPR competition, competitor 1347
Procedure: as §1

[5] = target: T1, recombinant human EGFR extracellular …; test: SPR competition, competitor Erbitux
Procedure: as §1

[6] = target: T1, recombinant human EGFR extracellular …; test: SPR competition, competitor 1257
Procedure: as §1

[7] = target: T1, recombinant human EGFR extracellular …; test: SPR competition, competitor Ab-11
Procedure: as §1

[8] = target: T1, recombinant human EGFR extracellular …; test: SPR competition, competitor 1260
Procedure: as §1

[9] = target: T1, recombinant human EGFR extracellular …; test: SPR competition, competitor 1284
Procedure: as §1

[10] = target: T1, recombinant human EGFR extracellular …; test: SPR competition, competitor Vectibix; remark: listed apart in the source
Procedure: as §1

[11] = target: T1, recombinant human EGFR extracellular …; test: SPR competition, competitor Ab-5
Procedure: as §1

[12] = target: T1, recombinant human EGFR extracellular …; test: SPR competition, competitor 992 corr
Procedure: as §1

[13] = target: T1, recombinant human EGFR extracellular …; test: SPR competition, competitor Ab-1
Procedure: as §1

[14] = target: T1, recombinant human EGFR extracellular …; test: SPR competition, competitor 1320
Procedure: as §1

[15] = target: T1, recombinant human EGFR extracellular …; test: SPR competition, competitor Erbitux; remark: listed apart in the source
Procedure: as §1

[16] = target: T1, recombinant human EGFR extracellular …; test: SPR competition, competitor 1030corr
Procedure: as §1

[17] = target: T1, recombinant human EGFR extracellular …; test: SPR competition, competitor ICR10
Procedure: as §1

[18] = target: T1, recombinant human EGFR extracellular …; test: SPR competition, competitor Ab-10
Procedure: as §1

[19] = target: T1, recombinant human EGFR extracellular …; test: SPR competition, competitor 1254
Procedure: as §1

[20] = target: T1, recombinant human EGFR extracellular …; test: SPR competition, competitor 1208
Procedure: as §1

[21] = target: T1, recombinant human EGFR extracellular …; test: SPR competition, competitor 1277
Procedure: as §1

[22] = target: T1, recombinant human EGFR extracellular …; test: SPR competition, competitor 1261
Procedure: as §1

[23] = target: T1, recombinant human EGFR extracellular …; test: SPR competition, competitor 1344
Procedure: as §1

Row | Binder | % inhibition [1] [%] | % inhibition [2] [%] | % inhibition [3] [%] | % inhibition [4] [%] | % inhibition [5] [%] | % inhibition [6] [%] | % inhibition [7] [%] | % inhibition [8] [%] | % inhibition [9] [%] | % inhibition [10] [%] | % inhibition [11] [%] | % inhibition [12] [%] | % inhibition [13] [%] | % inhibition [14] [%] | % inhibition [15] [%] | % inhibition [16] [%] | % inhibition [17] [%] | % inhibition [18] [%] | % inhibition [19] [%] | % inhibition [20] [%] | other results
1 | B1 | 54 | -21 | -24 | 4 | -2 | 58 | 94 | 75 | -8 | -5 | -3 | 14 | -4 | -18 | -2 | -6 | 24 | -6 | -12 | -24 | % inhibition [21]: -19%; % inhibition [22]: 95%; % inhibition [23]: 65%
2 | B2 | 9 | -2 | 0 | 62 | -7 | 0 | -15 | 79 | 98 | -13 | -13 | 6 | -9 | -1 | -2 | -5 | 86 | -8 | -3 | -2 | % inhibition [21]: -3%; % inhibition [22]: 4%; % inhibition [23]: 73%
3 | B3 | 25 | 8 | 3 | 15 | -4 | 83 | 86 | 87 | 81 | -5 | -3 | 9 | -2 | 8 | -4 | 31 | 87 | 0 | 10 | 3 | % inhibition [21]: 10%; % inhibition [22]: 71%; % inhibition [23]: 83%
4 | B4 | 11 | -7 | 3 | 65 | -6 | 27 | 85 | 86 | 76 | -8 | -4 | -9 | -5 | 2 | -6 | -2 | 15 | -3 | 0 | 1 | % inhibition [21]: 7%; % inhibition [22]: -9%; % inhibition [23]: 67%
5 | B5 | 2 | 14 | 93 | 5 | 2 | 2 | -6 | -4 | 5 | 6 | -3 | -27 | 3 | 97 | 2 | 0 | -3 | -2 | 3 | -3 | % inhibition [21]: 0%; % inhibition [22]: 4%; % inhibition [23]: 2%
6 | B6 | 64 | 31 | 33 | 46 | 8 | 55 | 99 | 88 | 67 | 10 | 1 | -10 | 7 | 26 | 8 | 18 | 91 | 12 | 22 | 33 | % inhibition [21]: 25%; % inhibition [22]: 97%; % inhibition [23]: 83%
